Reference: the supplement of paper PMC9112550, “Optimization of the antimicrobial peptide Bac7 by deep mutational scanning” (BMC Biology, 2022)

The sequences below were run on Escherichia coli TOP10 (assay: shrunken log2 fold change of peptide-encoding DNA abundance (4.5 h post-induction vs induction); higher = less antimicrobial activity (less host growth inhibition)). Conditions: time post-induction: 4.5 h; library: site-saturation at positions 5, 18, 19, 20.
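Also: peptides expressed intracellularly from a pBAD plasmid library in pooled LB shake-flask culture, induced with 0.3% L-arabinose, DNA abundance read by NGS, three biological replicates, DESeq2 with apeglm shrinkage.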

| Sequence | shrunken log2 fold change |
| --- | --- |
| RRIRRRPPRLPRPRPRPCLLPRP | -0.335 |
| RRIRGRPPRLPRPRPRPRTFPRP | 1.1 |
| RRIRARPPRLPRPRPRPWHAPRP | 0.288 |
| RRIRKRPPRLPRPRPRPFVNPRP | -0.122 |
| RRIRQRPPRLPRPRPRPKPTPRP | -0.0515 |
| RRIRPRPPRLPRPRPRPCNMPRP | 0.0288 |
| RRIRDRPPRLPRPRPRPYNGPRP | -0.0516 |
| RRIRERPPRLPRPRPRPFGMPRP | -0.0947 |
| RRIRQRPPRLPRPRPRPGSHPRP | -0.108 |
| RRIRPRPPRLPRPRPRPPWMPRP | 0.407 |
| RRIRPRPPRLPRPRPRPTSFPRP | 0.0509 |
| RRIRWRPPRLPRPRPRPATLPRP | -0.0879 |
| RRIRARPPRLPRPRPRPRVEPRP | 0.187 |
| RRIRCRPPRLPRPRPRPCNAPRP | -0.448 |
| RRIRNRPPRLPRPRPRPFLLPRP | -0.295 |
| RRIRVRPPRLPRPRPRPKQQPRP | 0.0386 |
| RRIRCRPPRLPRPRPRPRKKPRP | -0.125 |
| RRIRFRPPRLPRPRPRPAIDPRP | -0.00326 |
| RRIRARPPRLPRPRPRPWHPPRP | -0.00894 |
| RRIRYRPPRLPRPRPRPPEKPRP | 0.274 |
| RRIRHRPPRLPRPRPRPDCPPRP | 0.0615 |
| RRIRARPPRLPRPRPRPWNMPRP | -0.046 |
| RRIRARPPRLPRPRPRPGMDPRP | 0.543 |
| RRIRERPPRLPRPRPRPHPQPRP | -0.103 |
| RRIRGRPPRLPRPRPRPPHYPRP | 0.523 |

| Sequence | shrunken log2 fold change |
| --- | --- |
| RRIRCRPPRLPRPRPRPHWVPRP | -0.0374 |
| RRIRERPPRLPRPRPRPPTQPRP | 0.159 |
| RRIRMRPPRLPRPRPRPPTVPRP | 0.593 |
| RRIRNRPPRLPRPRPRPVCPPRP | -0.14 |
| RRIRYRPPRLPRPRPRPGMRPRP | 0.561 |
| RRIRDRPPRLPRPRPRPDAIPRP | 0.903 |
| RRIRCRPPRLPRPRPRPNALPRP | 0.0653 |
| RRIRYRPPRLPRPRPRPQRCPRP | -0.0766 |
| RRIRIRPPRLPRPRPRPTRYPRP | -0.328 |
| RRIRNRPPRLPRPRPRPSDRPRP | -0.0382 |
| RRIRKRPPRLPRPRPRPMIEPRP | 0.0881 |
| RRIRCRPPRLPRPRPRPKQVPRP | 0.44 |
| RRIRGRPPRLPRPRPRPIMKPRP | 0.227 |
| RRIRARPPRLPRPRPRPPLSPRP | 0.549 |
| RRIRWRPPRLPRPRPRPFKQPRP | -0.104 |
| RRIRWRPPRLPRPRPRPFHTPRP | -0.171 |
| RRIRERPPRLPRPRPRPHTEPRP | -0.239 |
| RRIRYRPPRLPRPRPRPDPPPRP | 0.0918 |
| RRIRVRPPRLPRPRPRPYECPRP | -1.34 |
| RRIRRRPPRLPRPRPRPTMPPRP | 0.438 |
| RRIRFRPPRLPRPRPRPVHGPRP | 0.284 |
| RRIRQRPPRLPRPRPRPEVNPRP | -0.142 |
| RRIRERPPRLPRPRPRPEIPPRP | 0.151 |
| RRIRKRPPRLPRPRPRPGYHPRP | 0.0924 |
| RRIRCRPPRLPRPRPRPAYMPRP | 0.119 |

| Sequence | shrunken log2 fold change |
| --- | --- |
| RRIRYRPPRLPRPRPRPMDMPRP | -0.00926 |
| RRIRWRPPRLPRPRPRPHWMPRP | 0.289 |
| RRIRSRPPRLPRPRPRPFYPPRP | -0.259 |
| RRIRSRPPRLPRPRPRPNYMPRP | -0.756 |
| RRIRNRPPRLPRPRPRPIMCPRP | -0.148 |
| RRIRERPPRLPRPRPRPFIIPRP | -0.769 |
| RRIRIRPPRLPRPRPRPCATPRP | -0.122 |
| RRIRERPPRLPRPRPRPRSRPRP | -0.195 |
| RRIRGRPPRLPRPRPRPCGNPRP | 0.255 |
| RRIRMRPPRLPRPRPRPCMLPRP | 0.303 |
| RRIRDRPPRLPRPRPRPTCCPRP | 0.104 |
| RRIRHRPPRLPRPRPRPLHQPRP | -0.00684 |
| RRIRFRPPRLPRPRPRPFATPRP | -0.0942 |
| RRIRKRPPRLPRPRPRPCLWPRP | 0.0613 |
| RRIRSRPPRLPRPRPRPRRHPRP | 0.323 |
| RRIRCRPPRLPRPRPRPRMCPRP | 0.337 |
| RRIRKRPPRLPRPRPRPARWPRP | 0.464 |
| RRIRARPPRLPRPRPRPPIGPRP | 0.287 |
| RRIRIRPPRLPRPRPRPMVSPRP | -0.044 |
| RRIRCRPPRLPRPRPRPMYFPRP | -0.796 |
| RRIRSRPPRLPRPRPRPKWHPRP | 0.0951 |
| RRIRQRPPRLPRPRPRPYSAPRP | -0.00273 |
| RRIRGRPPRLPRPRPRPEWQPRP | 0.783 |
| RRIRPRPPRLPRPRPRPTISPRP | -0.218 |
| RRIRPRPPRLPRPRPRPLIIPRP | -0.605 |

| Sequence | shrunken log2 fold change |
| --- | --- |
| RRIRSRPPRLPRPRPRPMVTPRP | -0.134 |
| RRIRIRPPRLPRPRPRPPKHPRP | 0.00437 |
| RRIRDRPPRLPRPRPRPGVKPRP | 0.0336 |
| RRIRRRPPRLPRPRPRPHSDPRP | -0.0198 |
| RRIRPRPPRLPRPRPRPVLTPRP | 0.0816 |
| RRIRWRPPRLPRPRPRPCIGPRP | -0.148 |
| RRIRTRPPRLPRPRPRPHFDPRP | -0.385 |
| RRIRDRPPRLPRPRPRPFCQPRP | -0.00439 |
| RRIRDRPPRLPRPRPRPQMAPRP | 0.116 |
| RRIRGRPPRLPRPRPRPESAPRP | 1.67 |
| RRIRIRPPRLPRPRPRPLIKPRP | -0.756 |
| RRIRVRPPRLPRPRPRPFRTPRP | -0.0962 |
| RRIRGRPPRLPRPRPRPAKTPRP | 0.121 |
| RRIRYRPPRLPRPRPRPFQQPRP | -0.0176 |
| RRIRWRPPRLPRPRPRPFKGPRP | -0.0135 |
| RRIRHRPPRLPRPRPRPYCKPRP | -1.02 |
| RRIRKRPPRLPRPRPRPKCQPRP | 0.03 |
| RRIRCRPPRLPRPRPRPWKRPRP | -0.0584 |
| RRIRSRPPRLPRPRPRPLVQPRP | -0.0825 |
| RRIRRRPPRLPRPRPRPYCTPRP | -0.24 |
| RRIRSRPPRLPRPRPRPETQPRP | 0.29 |
| RRIRQRPPRLPRPRPRPFKYPRP | -0.0224 |
| RRIRHRPPRLPRPRPRPTEMPRP | 0.181 |
| RRIRTRPPRLPRPRPRPSFMPRP | -0.412 |
| RRIRERPPRLPRPRPRPWNDPRP | -0.342 |

| Sequence | shrunken log2 fold change |
| --- | --- |
| RRIRKRPPRLPRPRPRPKKWPRP | 0.406 |
| RRIRYRPPRLPRPRPRPKCVPRP | 0.0122 |
| RRIRSRPPRLPRPRPRPQCGPRP | -0.129 |
| RRIRWRPPRLPRPRPRPPDSPRP | 0.0564 |
| RRIRKRPPRLPRPRPRPQRGPRP | -0.0338 |
| RRIRPRPPRLPRPRPRPRWCPRP | 0.171 |
| RRIRGRPPRLPRPRPRPGYYPRP | -0.301 |
| RRIRTRPPRLPRPRPRPCKEPRP | -0.00136 |
| RRIRKRPPRLPRPRPRPGGEPRP | 0.753 |
| RRIRTRPPRLPRPRPRPGTYPRP | 0.0862 |
| RRIRTRPPRLPRPRPRPHHPPRP | -0.135 |
| RRIRIRPPRLPRPRPRPVEGPRP | -0.308 |
| RRIRMRPPRLPRPRPRPTDEPRP | 0.116 |
| RRIRKRPPRLPRPRPRPERCPRP | 0.559 |
| RRIRLRPPRLPRPRPRPESLPRP | 0.157 |
| RRIRKRPPRLPRPRPRPTDLPRP | 0.0464 |
| RRIRNRPPRLPRPRPRPRMHPRP | 0.217 |
| RRIRNRPPRLPRPRPRPQMVPRP | -0.00674 |
| RRIRKRPPRLPRPRPRPGIPPRP | -0.0948 |
| RRIRGRPPRLPRPRPRPEPHPRP | 1.09 |
| RRIRDRPPRLPRPRPRPQTRPRP | 0.138 |
| RRIRCRPPRLPRPRPRPANKPRP | 0.361 |
| RRIRRRPPRLPRPRPRPAWMPRP | 0.24 |
| RRIRFRPPRLPRPRPRPFHWPRP | -0.336 |
| RRIRPRPPRLPRPRPRPYGIPRP | -0.533 |

| Sequence | shrunken log2 fold change |
| --- | --- |
| RRIRQRPPRLPRPRPRPFMSPRP | -0.0241 |
| RRIRMRPPRLPRPRPRPCFQPRP | -0.0397 |
| RRIRYRPPRLPRPRPRPHWIPRP | -0.398 |
| RRIRARPPRLPRPRPRPFQFPRP | -0.158 |
| RRIRRRPPRLPRPRPRPEFTPRP | 0.0132 |
| RRIRVRPPRLPRPRPRPFWTPRP | -0.427 |
| RRIRCRPPRLPRPRPRPGTEPRP | 0.078 |
| RRIRVRPPRLPRPRPRPVHIPRP | -0.174 |
| RRIRGRPPRLPRPRPRPACQPRP | 0.883 |
| RRIRNRPPRLPRPRPRPSTEPRP | 0.118 |
| RRIRMRPPRLPRPRPRPLRNPRP | 1.17 |
| RRIRMRPPRLPRPRPRPFGVPRP | 0.0231 |
| RRIRDRPPRLPRPRPRPTLLPRP | 0.758 |
| RRIRGRPPRLPRPRPRPWVCPRP | 0.0844 |
| RRIRRRPPRLPRPRPRPPWMPRP | 0.269 |
| RRIRGRPPRLPRPRPRPMFNPRP | -0.192 |
| RRIRLRPPRLPRPRPRPTWNPRP | -0.114 |
| RRIRDRPPRLPRPRPRPRPGPRP | 1.6 |
| RRIRGRPPRLPRPRPRPMGLPRP | -0.0139 |
| RRIRPRPPRLPRPRPRPPIPPRP | 0.15 |
| RRIRVRPPRLPRPRPRPISKPRP | -0.184 |
| RRIRYRPPRLPRPRPRPLLSPRP | -0.186 |
| RRIRLRPPRLPRPRPRPGVVPRP | 0.27 |
| RRIRARPPRLPRPRPRPKYCPRP | -0.464 |
| RRIRTRPPRLPRPRPRPAIIPRP | -0.233 |
